Experimental data reported in US20240383993A1 (LANOVA MEDICINES, published 2024).

T1: His-tagged cynomolgus 4-1BB protein (cynomolgus, UniProt A9YYE7 24-186)
T1 construct: Coated on ELISA plates at 2 µg/ml; also called Cyno 4-1BB; soluble cynomolgus 4-1BB; not shown: His tag
T1 sequence: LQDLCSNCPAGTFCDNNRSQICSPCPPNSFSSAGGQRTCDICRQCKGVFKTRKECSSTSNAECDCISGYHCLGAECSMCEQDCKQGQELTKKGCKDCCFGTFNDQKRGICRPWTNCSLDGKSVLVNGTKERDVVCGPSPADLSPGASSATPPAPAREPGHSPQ


Assays:
[1] = target: T2, human 4-1BB expressed on cells (human, UniProt Q07011 24-255); assay: flow cytometry on CHO-K1/hu4-1BB cells, anti-human Fc-Alexa Fluor 633
T2 construct: whole, on cells; also called CHO-K1/hu4-1BB; cell surface human 4-1BB
T2 sequence (Q07011 24-255): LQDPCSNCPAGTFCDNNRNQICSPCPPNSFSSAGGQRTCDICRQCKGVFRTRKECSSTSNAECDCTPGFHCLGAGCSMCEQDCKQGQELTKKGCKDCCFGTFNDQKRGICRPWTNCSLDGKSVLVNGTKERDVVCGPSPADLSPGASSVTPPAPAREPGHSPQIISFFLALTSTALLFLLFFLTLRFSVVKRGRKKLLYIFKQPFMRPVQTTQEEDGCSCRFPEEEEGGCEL
Experimental: (§1) To evaluate the antigen binding property in a cell-based setting, the 4-1BB humanized nanobodies were analyzed for their binding to 4-1BB overexpressed on CHO-K1 cells by FACS.
(§2) Briefly, CHO-K1 cells overexpressing human 4-1BB or cynomolgus 4-1BB were incubated with the serial diluted anti-4-1BB nanobodies for 30 min at 4° C. Then, the cells were incubated with Alexa Fluor 633-conjugated anti-human Fc secondary antibody. Binding was measured with an Agilent flow cytometer.

[2] = target: T2, human 4-1BB expressed on cells; assay: cell-based or functional assay
[3] = target: T3, His-tagged human 4-1BB protein (human, UniProt Q07011 24-186); assay: ELISA, coated His-tagged 4-1BB, anti-human IgG-HRP
T3 construct: Coated on ELISA plates at 2 µg/ml; also called hu4-1BB; soluble human 4-1BB; not shown: His tag
Experimental: (§3) His-tagged 4-1BB was coated at 2 μg/ml overnight and then blocked by 2% BSA in PBS. Serially diluted anti-4-1BB nanobodies were incubated with the coated antigen for 1h at room temperature with a reference antibody “Ref mAb”. The resulting plates were washed with PBS/T and incubated with goat anti-human IgG-HRP for 1 h at room temperature. The plates were developed with TMB substrate and analyzed by spectrophotometer at OD 450 nm.

[4] = target: T1, His-tagged cynomolgus 4-1BB protein; assay: ELISA, coated His-tagged 4-1BB, anti-human IgG-HRP
Experimental: as §3

[5] = target: T2, human 4-1BB expressed on cells; assay: flow cytometry competition with biotinylated human 4-1BB ligand on CHO-K1/human 4-1BB cells
Experimental: CHO-K1 cells overexpressing human 4-1BB were incubated with biotinylated human 4-1BB ligand (0.3 μg/ml) in the presence of serial diluted anti-41BB nanobodies for 1 h at 4° C. with Ref mAb as the reference antibody. Then, cells were incubated with Alexa Fluor 633-conjugated streptavidin. Binding was measured with an Agilent flow cytometer. As shown in FIG. 2 and Table 3, all of the tested nanobodies could block 4-1BB ligand binding to 4-1BB in a concentration-dependent manner while Ref mAb had no such effect.

[6] = target: T4, cynomolgus 4-1BB overexpressed on CHO-K1 cells (cynomolgus, UniProt A9YYE7 24-254); assay: flow cytometry on CHO-K1/Cyno-41BB cells, anti-human Fc-Alexa Fluor 633
T4 construct: whole, on cells; also called CHO-K1/Cyno-41BB; cell surface cyno 4-1BB
T4 sequence (A9YYE7 entry or part of it): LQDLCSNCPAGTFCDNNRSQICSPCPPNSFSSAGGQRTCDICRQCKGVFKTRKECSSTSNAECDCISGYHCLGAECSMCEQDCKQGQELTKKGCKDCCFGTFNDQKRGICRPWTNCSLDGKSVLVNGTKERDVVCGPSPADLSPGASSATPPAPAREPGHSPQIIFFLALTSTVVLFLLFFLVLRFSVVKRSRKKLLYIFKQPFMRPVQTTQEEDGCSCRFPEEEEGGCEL
Experimental: as §1, §2

| EC50 [1] [nM] | Max (MFI) [1] [MFI] | EC50 (nM) in Jurkat-41BB NFκB reporter assay [2] [nM] | EC50 [3] [nM] | EC50 [4] [nM] | IC50 [5] [nM] | EC50 [6] [nM] | Max (MFI) [6] [MFI] | Binder |
| --- | --- | --- | --- | --- | --- | --- | --- | --- |
| 27.4 | 3700 | – | – | – | – | – | – | VV02-1SP (1)-73 huNb_3_1 (Fc fusion, detection by anti-human Fc; not shown: Fc part, implied only by the anti-human Fc secondary antibody) VHH: EVQLVESGGGLVQPGGSLRLSCAASGFTFSSSAMSWARQAPGKGFEWVASIYSSGKTYYVESVKGRFTISRDNAKNSLYLQMNSLRAEDTAVYYCARWKTLRVGVWDESDYWGQGTLVTVSS |
| – | – | 0.031 | > 30 | 29.3 | 1.42 | – | – | VV02-1LP-317 (Fc fusion, not shown: a dimerising Fc or GST; small tags and cut ends, Llama nanobody tested as fusion with human IgG1 Fc (N297A)) VHH: EVDLVESGGGLVQPGGSLRLSCAASGFTFSRSAMSWARQAPGKGFEWVSGIYSGGSTYYVDSVEGRFTISRDNAKNTVYLQMNSLKPEDTAVYYCATWGSQQIGVWHEDDYWGQGTQVTVSS |
| – | – | 0.081 | 11.1 | – | 2.05 | – | – | VV02-1LP-417 (Fc fusion, Llama nanobody tested as fusion with human IgG1 Fc (N297A); not shown: Human IgG1 Fc fragment with N297A, plus the hinge or linker joining it to the nanobody) VHH: QLQLVESGGGLVQPGGSLRLSCAASGFALDYSAIGWFRQAPGKEREGVLCISSSGDVTIYADSVKGRFTISRDNAKNTVYLQMNSLKPEDTAVYYCVAPRICSTYSSDDYWGQGTQVTVSS |
| – | – | 0.052 | > 30 | – | 2.57 | – | – | VV02-1LP-288 (Fc fusion, not shown: a dimerising Fc or GST; small tags and cut ends, Llama nanobody tested as fusion with human IgG1 Fc (N297A)) VHH: EVQVVESGGGLVQPGGSLRLSCAASGSSLDYSAIGWFRQAPGKEREGVLCISSSGDVTIYADSVKGRFTISRDNAKNTVYLQMNSLKPEDTAVYYCVAPRICSTYSSDDYWGQGTQVTVSS |
| 0.11 | 39100 | – | – | – | – | 0.37 | 130000 | VV02-1LP-263 huNb_2_3 (Fc fusion, not shown: a dimerising Fc or GST, detection by anti-human Fc) VHH: EVQLVESGGGLVQPGGSLRLSCAASGFTFSSSAMSWARQAPGKGFEWVSGIYSGGSTYYTESVKDRFTISRDNAKNTVYLQMNSLKPEDTAVYYCATWGTLRFGVWAEYDHWGQGTLVTVSS |
| 0.11 | 42100 | – | – | – | – | 0.33 | 134000 | VV02-1LP-263 huNb_1_3 (Fc fusion, not shown: a dimerising Fc or GST, detection by anti-human Fc) VHH: EVQLLESGGGLVQPGGSLRLSCAASGFTFSSSAMSWARQTPGKGFEWVSGIYSGGSTYYTESVKDRFTISRDNSKNTVYLQMNSLKPEDTAVYYCATWGTLRFGVWAEYDHWGQGTQVTVSS |
| 0.14 | 38000 | – | – | – | – | 0.7 | 128000 | VV02-1LP-263 huNb_3_2 (Fc fusion, not shown: a dimerising Fc or GST, detection by anti-human Fc) VHH: QVQLVESGGGLVKPGGSLRLSCAASGFTFSSSAMSWARQAPGKGFEWVSGIYSGGSTYYTESVKDRFTISRDNAKNSLYLQMNSLRPEDTAVYYCATWGTLRFGVWAEYDHWGQGTQVTVSS |
| 0.19 | 23400 | – | – | – | – | 0.64 | 86400 | VV02-1LP-263 huNb_2_2 (Fc fusion, not shown: a dimerising Fc or GST, detection by anti-human Fc) VHH: EVQLVESGGGLVQPGGSLRLSCAASGFTFSSSAMSWARQAPGKGLEWVSGIYSGGSTYYTESVKDRFTISRDNAKNTLYLQMNSLRPEDTAVYYCATWGTLRFGVWAEYDHWGQGTLVTVSS |
| 0.17 | 23500 | – | – | – | – | 0.69 | 99600 | VV02-1LP-263 huNb_1_2 (Fc fusion, not shown: a dimerising Fc or GST, detection by anti-human Fc) VHH: EVQLLESGGGLVQPGGSLRLSCAASGFTFSSSAMSWARQAPGKGLEWVSGIYSGGSTYYTESVKDRFTISRDNSKNTVYLQMNSLKPEDTAVYYCATWGTLRFGVWAEYDHWGQGTLVTVSS |
| 0.12 | 40300 | – | – | – | – | 0.7 | 149000 | VV02-1LP-263 huNb_3_3 (Fc fusion, detection by anti-human Fc; not shown: Fc part, implied only by the anti-human Fc secondary antibody) VHH: QVQLVESGGGLVQPGGSLRLSCAASGFTFSSSAMSWARQAPGKGFEWVSGIYSGGSTYYTESVKDRFTISRDNAKNSVYLQMNSLKPEDTAVYYCATWGTLRFGVWAEYDHWGQGTQVTVSS |
| – | – | 0.036 | > 30 | 4.19 | 0.995 | – | – | VV02-2LP-13 (Fc fusion, Llama nanobody tested as fusion with human IgG1 Fc (N297A); not shown: Human IgG1 Fc fragment with N297A, plus the hinge or linker joining it to the nanobody) VHH: AVQLVESGGGLVQPGGSLRLSCAASGFTFSSYAMSWARQVPGKGFEWVAYIYSDGSTYYADSVKGRFTISRDNAKDTVYLHMNSLKFEDMAVYYCATWRSQQVGRWDEYDHWGQGTQVTVSS |
| – | – | 0.014 | > 30 | 18.2 | 0.923 | – | – | VV02-3LP-142 (Fc fusion, Llama nanobody tested as fusion with human IgG1 Fc (N297A); not shown: Human IgG1 Fc fragment with N297A, plus the hinge or linker joining it to the nanobody) VHH: AVQLVESGGGLVQRGGSLKLSCVGSGFDFSDHAMSWARQVPGKGFEWVAYIYSDGSTYYADSVKGRFTISRDNAKDTVYLHMNSLKFEDMAVYYCATWRSQQVGRWDEYDHWGQGTQVTVSS |
| – | – | 0.023 | > 30 | 1.87 | 0.573 | – | – | VV02-1SP (1)-55 (Fc fusion, not shown: a dimerising Fc or GST; small tags and cut ends, Llama nanobody tested as fusion with human IgG1 Fc (N297A)) VHH: EVQLVESGGGLVQPGGSLRLSCAASGFTFSSSAMSWARQVPGKGFEWVAYIYSDGSTYYADSVKGRFTISRDNAKDTVYLHMNSLKFEDMAVYYCATWRSQQVGRWDEYDYWGQGIQVTVSS |
| – | – | 0.004 | > 30 | 0.11 | 0.988 | – | – | VV02-1SP (1)-358 (Fc fusion, not shown: a dimerising Fc or GST; small tags and cut ends, Llama nanobody tested as fusion with human IgG1 Fc (N297A)) VHH: EVQLVESGGGLVQPGGSLMISCAASGFTFSSSAMSWARQVPGKGFEWVAYIYSDGSTYYADSVKGRFTISRDNAKDTVYLHMNSLKFEDMAVYYCATWRSQQVGRWDKYDYWGQGTQVTVSS |
| – | – | 0.014 | > 30 | 2.03 | 0.682 | – | – | VV02-3LP-83 (Fc fusion, Llama nanobody tested as fusion with human IgG1 Fc (N297A); not shown: Human IgG1 Fc fragment with N297A, plus the hinge or linker joining it to the nanobody) VHH: EVDLVESGGGLVQPGGSLRLSCAASGFTFRSYAMSWARQVPGKGFEWVAYIYSDGSTYYADSVKGRFTISRDNAKDTVYLHMNSLKFEDMAVYYCATWRSQQVGRWDEYDHWGQGTQVTVSS |
| – | – | 0.01 | > 30 | 0.11 | 0.573 | – | – | VV02-1SP (1)-73 (Fc fusion, not shown: a dimerising Fc or GST; small tags and cut ends, Llama nanobody tested as fusion with human IgG1 Fc (N297A)) VHH: EVDLVESGGGLVQPGGSLRLSCAVSGFTFSNSAMSWARQAPGKEFEWVSSIYSDGKTYYVDSVKGRFTISRDNAKNTVYLQMSSLKPEDTAVYYCATWKTLRVGVWDESDYWGQGTQVTVSS |
| 0.37 | 9270 | – | – | – | – | – | – | VV02-1SP (1)-73 huNb_2_2 (Fc fusion, detection by anti-human Fc; not shown: Fc part, implied only by the anti-human Fc secondary antibody) VHH: EVQLVESGGGLIQPGGSLRLSCAASGFTFSSSAMSWARQAPGKEFEWVSSIYSSGKTYYVESVKGRFTISRDNAKNTLYLQMSSLRAEDTAVYYCATWKTLRVGVWDESDYWGQGTQVTVSS |
| 0.52 | 8560 | – | – | – | – | – | – | VV02-1SP (1)-73 huNb_3_2 (Fc fusion, detection by anti-human Fc; not shown: Human Fc part, implied only by the anti-human Fc secondary antibody) VHH: EVQLVESGGGLVQPGGSLRLSCAASGFTFSSSAMSWARQAPGKGFEWVSSIYSSGKTYYVESVKGRFTISRDNAKNSLYLQMSSLRAEDTAVYYCATWKTLRVGVWDESDYWGQGTLVTVSS |
| 0.66 | 9630 | – | – | – | – | – | – | VV02-1SP (1)-73 huNb_3_3 (Fc fusion, detection by anti-human Fc; not shown: Human Fc part, implied only by the anti-human Fc secondary antibody) VHH: EVQLVESGGGLVQPGGSLRLSCAVSGFTFSSSAMSWARQAPGKEFEWVSSIYSSGKTYYVESVKGRFTISRDNAKNSVYLQMSSLRPEDTAVYYCATWKTLRVGVWDESDYWGQGTLVTVSS |
| 0.49 | – | – | – | – | – | – | – | VV02-1SP (1)-73 huNb_2_3 (Fc fusion, detection by anti-human Fc; not shown: Fc part, implied only by the anti-human Fc secondary antibody) VHH: EVQLVESGGGLVQPGGSLRLSCAVSGFTFSSSAMSWARQAPGKEFEWVSSIYSSGKTYYVESVKGRFTISRDNAKNTVYLQMSSLRPEDTAVYYCATWKTLRVGVWDESDYWGQGTQVTVSS |
| 0.61 | – | – | – | – | – | – | – | VV02-1SP (1)-73 huNb_1_3 (Fc fusion, detection by anti-human Fc; not shown: Fc part, implied only by the anti-human Fc secondary antibody) VHH: EVDLVESGGGLVQPGGSLRLSCAVSGFTFSSSAMSWARQAPGKEFEWVSSIYSSGKTYYVESVKGRFTISRDNAKNTVYLQMSSLRPEDTAVYYCATWKTLRVGVWDESDYWGQGTLVTVSS |
| 0.8 | 5240 | – | – | – | – | – | – | VV02-1SP (1)-73 huNb_1_2 (Fc fusion, detection by anti-human Fc; not shown: Fc part, implied only by the anti-human Fc secondary antibody) VHH: EVQLLESGGGLVQPGGSLRLSCAASGFTFSSSAMSWARQAPGKELEWVSSIYSSGKTYYVESVKGRFTISRDNAKNTLYLQMSSLRAEDTAVYYCATWKTLRVGVWDESDYWGQGTLVTVSS |
